Laboratory results reported in patent US20100216715A1 (Novo Nordisk, published 2010).
Positions count from the first letter of the chain named. Names may count otherwise.

B1: Met-FGF21 (ligand)
chain: MHPIPDSSPLLQFGGQVRQRYLYTDDAQQTEAHLEIREDGTVGGAADQSPESLLQLKALKPGVIQILGVKTSRFLCQRPDGALYGSLHFDPEACSFRELLLEDGYNVYQSEAHGLPLHLPGNKSPHRDPAPRGPARFLPLPGLPPALPEPPGILAPQPPDVGSSDPLSMVGPSQGRSPSYAS
B2: (A26E, K56R, K59R, K69R, D102T, N121Q, K122R, Y179F, A180E, S181R) Gly-FGF21 (ligand)
chain: GHPIPDSSPLLQFGGQVRQRYLYTDDEQQTEAHLEIREDGTVGGAADQSPESLLQLRALRPGVIQILGVRTSRFLCQRPDGALYGSLHFDPEACSFRELLLETGYNVYQSEAHGLPLHLPGQRSPHRDPAPRGPARFLPLPGLPPALPEPPGILAPQPPDVGSSDPLSMVGPSQGRSPSFER
B3: (Q27E, K56R, K59R, K69R, D102T, N121Q, K122R, Y179F, A180E, S181R) Gly-FGF21 (ligand)
chain: B2 chain with E27A, Q28E
B4: (Q28R, K56R, K59R, K69R, D102T, N121Q, K122R, D159E, M168L, G174A, Y179F) Gly-FGF21 (ligand)
chain: B2 chain with E27A, Q29R, D160E, M169L, G175A, E181A, R182S
B5: (Q28R, K56R, K59R, K69R, D102T, N121Q, K122R, L166F, S167G, M168L, G170T) Gly-FGF21 (ligand)
chain: B2 chain with E27A, Q29R, L167F, S168G, M169L, G171T, F180Y, E181A, R182S
B6: (Q28R, K56R, K59R, K69R, D102T, N121Q, K122R, M168L, Y179F, A180E, S181R) Gly-FGF21 (ligand)
chain: B2 chain with E27A, Q29R, M169L
B7: [28R, K56R, 59R, 69R, 102T, 121Q, 122R, 168L, 179F, 180E, 181R] Gly-FGF21 derivative of Example 47 (ligand)
chain: B2 chain with E27A, Q29R, M169L
modifications: N-alpha-1-[2-(2-{2-[2-(2-{2-[(S)-4-carboxy-4-(17-carboxy-heptadecanoylamino)-butyrylamino]-ethoxy}-ethoxy)-acetylamino]-ethoxy}-ethoxy)-acetyl] on the N-terminal alpha amino group
B8: (K56R, K59R, K69R, K122R) Gly-FGF21 (ligand)
chain: B1 chain with M1G, K57R, K60R, K70R, K123R
B9: (K56R, K59R, K69R, K122R) Gly-FGF21 derivative of Example 46 (ligand)
chain: B1 chain with M1G, K57R, K60R, K70R, K123R
modifications: N-alpha-1-[2-(2-{2-[2-(2-{2-[(S)-4-carboxy-4-(17-carboxy-heptadecanoylamino)-butyrylamino]-ethoxy}-ethoxy)-acetylamino]-ethoxy}-ethoxy)-acetyl] on the N-terminal alpha amino group
B10: (K56R, K59R, K69R, K122R) Gly-FGF21 derivative of Example 53 (ligand)
chain: B1 chain with M1G, K57R, K60R, K70R, K123R
modifications: N-alpha-1-(2-{2-[2-(16-1H-tetrazol-5-yl-hexadecanoylamino)-ethoxy]-ethoxy}-acetyl) on the N-terminal alpha amino group
B11: (K56R, K59R, K69R, K122R) Gly-FGF21 derivative of Example 54 (ligand)
chain: B1 chain with M1G, K57R, K60R, K70R, K123R
modifications: N-alpha1-[4-(16-1H-tetrazol-5-yl-hexadecanoylsulfamoyl)-butyryl] on the N-terminal alpha amino group
B12: (K56R, K59R, K69R, K122R) EEAEAGGAGGSGGS-FGF21 (ligand)
chain: EEAEAGGAGGSGGSHPIPDSSPLLQFGGQVRQRYLYTDDAQQTEAHLEIREDGTVGGAADQSPESLLQLRALRPGVIQILGVRTSRFLCQRPDGALYGSLHFDPEACSFRELLLEDGYNVYQSEAHGLPLHLPGNRSPHRDPAPRGPARFLPLPGLPPALPEPPGILAPQPPDVGSSDPLSMVGPSQGRSPSYAS
B13: (K56R, K59R, K69R, K122R, L166F, S167G, M168L, 169aT, P171L, S172E, Q173A, G174V, Y179F, A180E, S181R) Gly-FGF21 (ligand)
chain: GHPIPDSSPLLQFGGQVRQRYLYTDDAQQTEAHLEIREDGTVGGAADQSPESLLQLRALRPGVIQILGVRTSRFLCQRPDGALYGSLHFDPEACSFRELLLEDGYNVYQSEAHGLPLHLPGNRSPHRDPAPRGPARFLPLPGLPPALPEPPGILAPQPPDVGSSDPFGLVTGLEAVRSPSFER
B14: (K56R, 59R, 69R, 122R, 166F, 167G, 168L, 169aT, 171L, 172E, 173A, 174V, 179F, 180E, 181R) Gly-FGF21 derivative of Example 49 (ligand)
chain: B13 chain
modifications: N-alpha-1-[2-(2-{2-[2-(2-{2-[(S)-4-carboxy-4-(17-carboxy-heptadecanoylamino)-butyrylamino]-ethoxy}-ethoxy)-acetylamino]-ethoxy}-ethoxy)-acetyl] on the N-terminal alpha amino group
B15: (K56R, 59R, 69R, 122R, 168L) Gly-FGF21 derivative of Example 48 (ligand)
chain: B1 chain with M1G, K57R, K60R, K70R, K123R, M169L
modifications: N-alpha-1-[2-(2-{2-[2-(2-{2-[(S)-4-carboxy-4-(17-carboxy-heptadecanoylamino)-butyrylamino]-ethoxy}-ethoxy)-acetylamino]-ethoxy}-ethoxy)-acetyl] on the N-terminal alpha amino group
B16: (S71C) Gly-FGF21 (ligand)
chain: B1 chain with M1G, S72C
B17: (S71C, D102E, N121Q, L166F, S167G, M168L, 169aT, P171L, S172E, Q173A, G174V, Y179F, A180E, S181K) Gly-FGF21 (ligand)
chain: B13 chain with R57K, R60K, R70K, S72C, D103E, N122Q, R123K, R183K
B18: (S71C, N121Q, L166F, S167G, M168L, 169aT, P171L, S172E, Q173A, G174V, Y179F, A180E, S181K) Gly-FGF21 (ligand)
chain: B13 chain with R57K, R60K, R70K, S72C, N122Q, R123K, R183K
B19: (-1G, 71C, 121Q, 166F, 167G, 168L, 169aT, 171L, 172E, 173A, 174V, 179F, 180E, 181K) FGF21 derivative of Example 16 (ligand)
chain: B13 chain with R57K, R60K, R70K, S72C, N122Q, R123K, R183K
modifications: S-71-({2-[2-(2-{2-[2-(2-{2-[(S)-4-carboxy-4-(17-carboxy-heptadecanoylamino)-butyrylamino]-ethoxy}-ethoxy)-acetylamino]-ethoxy}-ethoxy)-acetylamino]-ethylcarbamoyl}-methyl) on the thiol of Cys71
B20: (S71C, L166F, S167G, M168L, 169aT, P171L, S172E, Q173A, G174V, Y179F, A180E, S181K) Gly-FGF21 (ligand)
chain: B13 chain with R57K, R60K, R70K, S72C, R123K, R183K
B21: (-1G, 71C, 166F, 167G, 168L, 169aT, 171L, 172E, 173A, 174V, 179F, 180E, 181K) FGF21 derivative of Example 15 (ligand)
chain: B13 chain with R57K, R60K, R70K, S72C, R123K, R183K
modifications: S-71-({2-[2-(2-{2-[2-(2-{2-[(S)-4-carboxy-4-(17-carboxy-heptadecanoylamino)-butyrylamino]-ethoxy}-ethoxy)-acetylamino]-ethoxy}-ethoxy)-acetyl-amino]-ethylcarbamoyl}-methyl) on the thiol of Cys71
B22: (D102N) Met-FGF21 (ligand)
chain: B1 chain with D103N
B23: (-14E, -13E, -12A, -11E, -10A, -9G, -8G, -7A, -6G, -5G, -4S, -3G, -2G, -1S, K56R, 59R, 69R, 122R) FGF21 derivative of Example 51 (ligand)
chain: B12 chain
modifications: N-alpha-1-[(S)-4-carboxy-4-(17-carboxy-heptadecanoylamino)-butyryl] on the N-terminal alpha amino group
B24: D102T Met-FGF21 (ligand)
chain: B1 chain with D103T
B25: (N121D) Met-FGF21 (ligand)
chain: B1 chain with N122D
B26: (N121Q) Met-FGF21 (ligand)
chain: B1 chain with N122Q
B27: K122C Met-FGF21 derivative of Example 4 (ligand)
chain: B1 chain with K123C
modifications: S-122-[1-(2-{2-[2-(2-{2-[2-(2-{2-[(S)-4-carboxy-4-(17-carboxy-heptadecanoylamino)-butyrylamino]-ethoxy}-ethoxy)-acetylamino]-ethoxy}-ethoxy)-acetylamino]-ethylcarbamoyl}-ethyl)-2,5-dioxo-pyrrolidin-3-yl] on the thiol of Cys122

target: T1, human beta-Klotho (human, UniProt Q86Z14 1-1044); assay: cell-based or functional assay
T1 sequence (looked up): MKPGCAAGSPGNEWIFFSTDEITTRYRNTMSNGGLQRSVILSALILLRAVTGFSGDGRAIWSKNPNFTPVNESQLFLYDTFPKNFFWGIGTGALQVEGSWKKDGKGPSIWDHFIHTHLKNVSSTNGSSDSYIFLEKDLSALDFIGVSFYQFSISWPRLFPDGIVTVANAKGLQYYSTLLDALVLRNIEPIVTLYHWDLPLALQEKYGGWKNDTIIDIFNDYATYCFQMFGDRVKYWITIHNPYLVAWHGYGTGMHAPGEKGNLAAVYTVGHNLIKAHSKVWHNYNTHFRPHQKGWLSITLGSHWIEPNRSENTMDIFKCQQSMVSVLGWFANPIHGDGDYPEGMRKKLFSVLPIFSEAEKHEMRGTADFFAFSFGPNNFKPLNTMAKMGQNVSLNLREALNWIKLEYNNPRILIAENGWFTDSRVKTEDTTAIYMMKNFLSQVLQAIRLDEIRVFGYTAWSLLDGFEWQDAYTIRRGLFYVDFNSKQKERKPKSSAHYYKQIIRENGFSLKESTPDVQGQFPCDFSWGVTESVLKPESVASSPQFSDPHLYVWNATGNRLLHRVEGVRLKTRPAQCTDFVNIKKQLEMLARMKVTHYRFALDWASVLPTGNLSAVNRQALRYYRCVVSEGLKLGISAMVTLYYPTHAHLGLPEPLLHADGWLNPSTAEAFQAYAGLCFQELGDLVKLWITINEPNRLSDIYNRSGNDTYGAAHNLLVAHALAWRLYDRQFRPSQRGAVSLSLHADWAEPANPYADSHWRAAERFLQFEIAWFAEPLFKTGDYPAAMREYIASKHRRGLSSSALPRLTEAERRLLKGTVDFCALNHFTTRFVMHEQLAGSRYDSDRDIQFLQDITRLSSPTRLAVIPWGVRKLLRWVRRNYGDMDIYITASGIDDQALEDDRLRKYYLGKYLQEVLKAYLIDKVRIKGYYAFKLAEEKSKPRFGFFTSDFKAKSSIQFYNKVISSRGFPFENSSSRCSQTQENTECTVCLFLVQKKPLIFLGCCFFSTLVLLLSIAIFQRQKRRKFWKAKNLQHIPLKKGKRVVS

Row | Molecule | pERK-HEK293-Beta-klotho without HSA [EC50 (nM)] Median Value
1 | (P143V, A145E, L146E, 148aD, P149L, P150R, I152H, 153aE, 153bS, 153cD, 153dM, A154F, P155S, Q156S, P158L, D159E, V160T, G161D, S163M, L166F, S167G, M168L, 169aT, P171L, S172E, Q173A, G174V, Y179F, A180E, S181K) Met-FGF21 (ligand) | 9.5 nM
2 | B1 | 1.6 nM
3 | B2 | 44 nM
4 | B3 | 36 nM
5 | B4 | 15 nM
6 | B5 | 1 nM
7 | B6 | 29 nM
8 | B7 | 10 nM
9 | B8 | 7.4 nM
10 | B9 | 3.9 nM
11 | B10 | 6.4 nM
12 | B11 | 4.2 nM
13 | B12 | 2 nM
14 | B13 | 3.3 nM
15 | B14 | 1.2 nM
16 | B15 | 4.6 nM
17 | B16 | 2.5 nM
18 | B17 | 1.8 nM
19 | B18 | 1.1 nM
20 | B19 | 1.4 nM
21 | B20 | 1.4 nM
22 | B21 | 1.6 nM
23 | B22 | 0.7 nM
24 | B23 | 12 nM
25 | B24 | 1.7 nM
26 | B25 | 1.2 nM
27 | B26 | 1 nM
28 | B27 | 0.9 nM
